This assay has as its target L-selectin (CD62L) on Jurkat T cells (human (endogenous in Jurkat)) (UniProt P14151). Nature of the assay: flow cytometry on cells.

Our source for the fold binding (MFI) with DREG-55 mAb, relative to the DREG-200 mAb sample values is paper PMC3921101.

Sequence of UniProt P14151 (P14151 39-372): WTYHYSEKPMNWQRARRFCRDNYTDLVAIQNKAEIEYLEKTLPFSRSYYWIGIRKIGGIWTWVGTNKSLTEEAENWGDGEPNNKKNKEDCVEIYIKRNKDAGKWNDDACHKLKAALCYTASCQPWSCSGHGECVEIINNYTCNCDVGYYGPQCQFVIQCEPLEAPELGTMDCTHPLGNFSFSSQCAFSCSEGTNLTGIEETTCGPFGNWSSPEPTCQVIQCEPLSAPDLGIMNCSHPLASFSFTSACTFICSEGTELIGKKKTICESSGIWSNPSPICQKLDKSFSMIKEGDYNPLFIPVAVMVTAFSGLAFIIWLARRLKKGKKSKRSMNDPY

With “Human E-selectin-Fc chimera (from UniProt P16581 22-556) (Fc fusion)”, the fold binding (MFI) with DREG-55 mAb, relative to the DREG-200 mAb sample amounted to 1.4 fold.

On to “Human PSGL-1-Fc chimera (from UniProt Q14242 42-320) (Fc fusion)”, for which the fold binding (MFI) with DREG-55 mAb, relative to the DREG-200 mAb sample was 1.6 fold.
